Molecular target: CD123 on the surface of EOL-1, KOPN-8 and MOLM-1 cells (UniProt P26951)
Test: cell-based or functional assay

Sequence of CD123 on the surface of EOL-1, KOPN-8 and MOLM-1 cells (P26951 19-378 limits assumed): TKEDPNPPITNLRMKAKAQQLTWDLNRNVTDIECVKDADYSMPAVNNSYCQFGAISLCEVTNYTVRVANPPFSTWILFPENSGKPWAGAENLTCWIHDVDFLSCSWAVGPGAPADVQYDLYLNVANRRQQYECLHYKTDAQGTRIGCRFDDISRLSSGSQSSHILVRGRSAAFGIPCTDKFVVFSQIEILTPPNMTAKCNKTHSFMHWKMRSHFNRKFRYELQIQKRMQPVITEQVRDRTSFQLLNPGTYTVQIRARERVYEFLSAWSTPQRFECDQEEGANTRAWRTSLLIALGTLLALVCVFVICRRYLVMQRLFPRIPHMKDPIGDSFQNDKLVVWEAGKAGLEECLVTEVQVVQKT

B1: huCD123-6Rv1.1-D2 (antibody, from a related filing, V domains shown)
VH: QFQLVQSGAEVVKPGASVKMSCKASGYTFTSSIMHWMKQKPGQGLEWIGYIKPYNDGTKYNQKFQGKATLTSDKSSSTANMELNSLTSEDSAVYYCAREGGNDYYDTMDYWGQGTSVTVSS
VL: DIQMTQSPSSMSASVGERVTITCRASQDINSYLSWFQQKPGKSPKTLIYRVNRLVDGVPSRFSGSGSGQDYSLTISSLEPEDMGIYYCLQYDAFPYTFGQGTKLEIKR
- IC50, in vitro cytotoxicity assay (WST-8), EOL-1 cells: 2 pM
- IC50, in vitro cytotoxicity assay (WST-8), KOPN-8 cells: 5 pM
- IC50, in vitro cytotoxicity assay (WST-8), MOLM-1 cells: 20 pM
- fold loss of cytotoxicity when CD123 is blocked by chCD123-6: 100 fold
